Measurements: the DeepSol protein solubility set

Assay: soluble on expression in E. coli; label from the status in PepcDB or PDB records
For “MKLQLALDELTLPEAMVFMDKVVDDVDIIEVGTPFLIREGVNAIKAIKEKYPHKEVLADAKIMDGGHFESQLLFDAGADYVTVLGVTDVLTIQSCIRAAKEAGKQVVVDMICVDDLPARVRLLEEAGADMLAVHTGTDQQAAGRKPIDDLITMLKVRRKARIAVAGGISSQTVKDYALLGPDVVIVGSAITHAADPAGEARKISQVLLQHH”, the “soluble on expression in E. coli” value was “soluble”.
In the case of “MKLTDYVKQVSLEDFGRPFIHHVQWNRRLRSTGGRFFPKDGHLDFNPKVYQELGLDVFRKIVRHELCHYHLYFQGKGYQHKDRDFKELLKAVDGLRFVPSLPNSNSKPIKLYRCQSCQQRYQRKRRIDTQRYRCGLCRGKLLLVNQPEDLEHHHHHH”, the “soluble on expression in E. coli” value is reported as “not soluble”.
In the case of “MKLVKLSLVAALAAGAFSAANATPLEEAIKDVDVSGVLRYRYDTGNFDKNFVNNSNLNNSKQDHKYRAQVNFSAAIADNFKAFVQFDYNAADGGYGANGIKNDQKGLFVRQLYLTYTNEDVATSVIAGKQQLNLIWTDNAIDGLVGTGVKVVNNSIDGLTLAAFAVDSFMAAEQGADLLEHSNISTTSNQAPFKVDSVGNLYGAAAVGSYDLAGGQFNPQLWLAYWDQVAFFYAVDAAYSTTIFDGINWTLEGAYLGNSLDSELDDKTHANGNLFALKGSIEVNGWDASLGGLYYGDKEKASTVVIEDQGNLGSLLAGEEIFYTTGSRLNGDTGRNIFGYVTGGYTFNETVRVGADFVYGGTKTEAANHLGGGKKLEAVARVDYKYSPKLNFSAFYSYVNLDQGVNTNESADHSTVRLQALYKF”, the “soluble on expression in E. coli” value is reported as “soluble”.
With “MKMAKSEDERLAEEWAAALGEDPNAPDIDVDEILAAPLEELKNTAPPITDDERRKLDTIMDIPVTISMEVGRSKISIRNLLQLNQGSVVELDRIAGESLDVMVNGTLIAHGEVVVVNDKFGIRLTDVISQTERIKKLR” the “soluble on expression in E. coli” value was “not soluble”.
In the case of “MKMKLTAAIIAAFVIIMGCAGGPKASKADELDLAIRDTSDYLNDNIPKGNKIIILNIQSDYASLSDYIIDELIANAVNDKIFKVVDRAQLEQIRAELNFQWSGEVDDKSALEIGKFLGAQTIVTGAISQLADRHRMRIRALNVKTAEVQGQYNRNITTSPMITALMKGGKSTNTSYGGKTRSGNSSGTTGGTSGAKTSQPATPEYKIGDTGPAGGLIFYDKKNNRNGWRYLEAAPANTERETFMSGDSPYSLGNKNLVGDGFENTQNMMKSIEKKGGGIGSAPYYCTNLVVNGFNDWYLPSFDEISLMYTNLHANNLGSFKQRDYWHSSEHGVVWGTYSFAKGEKGQHSYAYDNDKRLTRACRRF”, the “soluble on expression in E. coli” value is reported as “not soluble”.
For “MKMNEEKAVVVFSGGQDSTTCLFWAKKQFGEVEAVTFDYGQRHRREIDVAQAIADELGVRHTVLDLSLLGQLAPNALTRRDIAIEQKEGELPTTFVDGRNLLFLSFAAVFAKQRGARHIVTGVCETDFSGYPDCRDVFIKSLNVTLNLAMDYEFVIHTPLMWLTKAETWKLADELGALEFIRTKTLTCYNGIIADGCGECPACVLRKRGLDEYLREKEGVESR”, the “soluble on expression in E. coli” value was “not soluble”.
With “MKNFEIVTVTPDHAEQLISMIHELAEFEKMKSSVVNTAEKLRKDIENKAVHGFIAFIGEEPAGMNLFYYAYSTWVGQYLHMEDLYIRPQFRRMGLARTLWKKLAELARDKGIVRLEWAVLDWNKNAIALYDTVDYVNLTKSEGWFTFRMDGAAINKFADE” the “soluble on expression in E. coli” value was “not soluble”.
In the case of “MKNLILVLGCFFFLISCQQTEKEKLEELVKNWNGKEVLFPTNPSFTLYGKTPVDFKIPVSDYKIVTYVDSLGCSSCKLQLPKWKEFMKYADSIVGYQIPVLFFLHPANVREMRSVLKQNRFDYPVCMDTEDTFNKVNKFPSQLNFQTFLLDKNNHVIAIGNPVHNYDVRELYIHLISGGIDGDSLSNMRTVIKIEEDMVDLGSFDWRREQHITFEIHNIGNNNLVVYDNKTSCGCTSVEYSKEPVQPGKSLAVKVTYKADHPEHFNKTIILYCNASASPLELKITGNAK”, the “soluble on expression in E. coli” value is reported as “not soluble”.
In the case of “MKNMNKYENCLLCPRKCGINRSTGQTGVCGVSSEIKVARAALHYWEEPCISGKRGSGAVFFSGCSLHCVFCQNREISDGKAGKVISKERLSDIFMELADKGANNINLVTPGQYIPDIVWAVNDAKSRGMKLPIIYNTSGYENVTELKLLEGIVDVYLPDFKYMDSTLSARYSRAKDYPSVAKQALSEMVRQQPDVVIDDATGLIQKGVIVRQLLLPGHVNDAKAVLKYLYDTYHDHVYISMMSQFTPIALKDYPEINRTVTRREYERLVDYALEIGITNAFIQEGDVAKDSFIPAFDCEGV”, the “soluble on expression in E. coli” value is reported as “not soluble”.
In the case of “MKNMTALSPSELPRLIDFLEQRNEFAVYAGRVHIHPVTRFCIYWLLLTMTRIREAALMEWSELDGEVWRIPAERKKERRGHDVPLSRAMRWVLDQARGLNVNGRFVFESVNFQGHINKESPHVAMRRSGLDTTAHGLRSLARTYLREVLKVYNDVAEKLLAHSLGLEHHHHHH”, the “soluble on expression in E. coli” value is reported as “not soluble”.
With “MKNVGFIGWRGMVGSVLMDRMSQENDFENLNPVFFTTSQAGQKAPVFGGKDAGDLKSAFDIEELKKLDIIVTCQGGDYTNEVYPKLKATGWDGYWVDAASALRMKDDAIIVLDPVNQHVISEGLKKGIKTFVGGNCTVSLMLMAIGGLFEKDLVEWISVATYQAASGAGAKNMRELLSQMGLLEQAVSSELKDPASSILDIERKVTAKMRADNFPTDNFGAALGGSLIPWIDKLLPETGQTKEEWKGYAETNKILGLSDNPIPVDGLCVRIGALRCHSQAFTIKLKKDLPLEEIEQIIASHNEWVKVIPNDKEITLRELTPAKVTGTLSVPVGRLRKLAMGPEYLAAFTVGDQLLWGAAEPVRRILKQLVA” the “soluble on expression in E. coli” value was “soluble”.
In the case of “MKPFVPKLVYFEPEALSYPLGQELYEKFTQMGIEIRETTSHNQVRGIPGETELARYRNAKSTLVVGVRRTLKFDSSKPSAEYAIPLATGCMGHCHYCYLQTTLGSKPYIRVYVNLDDIFAQAQKYIDERAPEITRFEAACTSDIVGIDHLTHSLKKAIEFIGATDYGRLRFVTKYEHVDHLLDAKHNGKTRFRFSVNSRYVINHFEPGTSSFDARLQAARKVAGAGYKLGFVVAPIYRHDGWEQGYFELFQELARQLEGVDLSDLTFELIQHRFTKPAKRVIEQRYPKTKLDLDESKRKYKWGRYGIGKYVYRDKEARELEETMCSYIARFFPSAQVQYFT”, the “soluble on expression in E. coli” value is reported as “not soluble”.
In the case of “MKPLSWSEAFGKGAGRIQASTIRELLKLTQRPGILSFAGGLPAPELFPKEEAAEAAARILREKGEVALQYSPTEGYAPLRAFVAEWIGVRPEEVLITTGSQQALDLVGKVFLDEGSPVLLEAPSYMGAIQAFRLQGPRFLTVPAGEEGPDLDALEEVLKRERPRFLYLIPSFQNPTGGLTPLPARKRLLQMVMERGLVVVEDDAYRELYFGEARLPSLFELAREAGYPGVIYLGSFSKVLSPGLRVAFAVAHPEALQKLVQAKQGADLHTPMLNQMLVHELLKEGFSERLERVRRVYREKAQAMLHALDREVPKEVRYTRPKGGMFVWMELPKGLSAEGLFRRALEENVAFVPGGPFFANGGGENTLRLSYATLDREGIAEGVRRLGRALKGLLALV”, the “soluble on expression in E. coli” value is reported as “soluble”.
With “MKPRIYVKVKPERLGAVIGPRGEVKAEIMRRTGTVITVDTENSMVIVEPEAEGIPPVNLMKAAEVVKAISLGFPPEKAFRLLEEDQILVVVDLKQVVGDSQNHLKRIKGRIIGEGGRARRTIEEMTDTYINVGEYEVAIIGDYERAMAAKQAIEMLAEGRMHSTVYRHLERIMREIKRRERLKMWAREEL” the “soluble on expression in E. coli” value was “soluble”.
For “MKPTKARLRNHVITLKNSVEKEIRAKKTKAIRAHIESEWLKIDPEFEKLHRYFSSLRIRQNVKNELVDLLEENSLEIWSFYRDTDARDFETYKKGFLEKLKYNSIKGLAKVEAVYDQEIQEVRETYNAIIANVERVPAKQGVAYLEELGINVDVFKEEEAQLPMIAVDKSKLRLPSETADSK”, the “soluble on expression in E. coli” value was “not soluble”.
In the case of “MKQFDKHADAYNVVRGKIAYPDSLYRNLAERAPAREAALDIGCGNGVSTVRLQPWFRYVEGSDLGEALIAKARENYPEIRFSVSPAETFAPQRRFDLVTSATSFYWMDRKQVLTRMADWLTPGGLFCAYKYDFPIAYGPLRDFIEHELVNKWAKHRDPRLTRYDDTLEIMGSCPHLRDCRREVFANIIFLSPEEVALFFLSTSYVTRYIEQEGGEDYADRFIAAVREIESAPQVAVNFDIHAFTALNR”, the “soluble on expression in E. coli” value is reported as “not soluble”.
